Laboratory results as given in PMC2791412 (Biochemistry, 2009).
Where two headings read alike, the source gives them in different places. No end group written: not given here.

B1: BIQ, fluorescent reporter containing an IQ domain sequence derived from neuromodulin (domain or fragment)
chain: AHKAATKIQASFRGHITRKKLKGEKKDDVQ
modifications: also: fluorescent reporter
B2: BIQPEP, fluorescent reporter containing an IQ domain sequence derived from PEP19 (domain or fragment)
chain: TERAAVAIQSQFRKFQKKKAGSQS
modifications: also: fluorescent reporter

Experiments:
[1] = target: T1, calmodulin (native vertebrate CaM) (vertebrate, UniProt P0DP23 1-149); experiment: other fluorescence titration
[2] = target: T1, calmodulin (native vertebrate CaM); experiment: other fluorescence titration; remark: listed apart in the source

Row | Binder | Kd [1] | Kd [2]
1 | B1 | 2.9 µM | 2.4 µM
2 | B2 | 11 µM | 1130 µM
